Target: T1, prostate-specific membrane antigen (PSMA) (human, UniProt Q04609 44-750, limits assumed, 125I-labelled in Examples 2 and 8 (site of iodination not stated); unlabelled in Examples 5 and 6)
T1 construct: also called purified recombinant PSMA
Experiment: competition radioligand binding: 1 nM 125I-PSMA on plate-coated mimetope (SEQ ID NO:24), with 0 or 10 uM of the soluble peptide as competitor
Description: For a typical competition binding experiment, the mimetope is coated to a solid support such as a 96-well plate by allowing 100 ul of a 10 uM solution of the mimetope (SEQ ID NO:24) in water to dry in the wells. The wells are then washed with TBST and blocked with 3% casein in TBST to minimize non-specific binding. The wells are then incubated with 1 nM ¹²⁵I-PSMA at a specific activity of about 80 000 dpm/pmol, containing 0 or 10 uM of alanine-mimetope. The plate is incubated O/N at 4° C. then the wells are rapidly washed with TBST to remove the unbound ligand fraction, and then counted in a gamma counter. The radioactivity counted in each wells represents the bound fraction of the ligand. An alanine-mimetope that binds to PSMA will thus reduce the binding of ¹²⁵I-PSMA to the coated (SEQ ID NO:24).

T1 sequence (Q04609 44-750 limits assumed): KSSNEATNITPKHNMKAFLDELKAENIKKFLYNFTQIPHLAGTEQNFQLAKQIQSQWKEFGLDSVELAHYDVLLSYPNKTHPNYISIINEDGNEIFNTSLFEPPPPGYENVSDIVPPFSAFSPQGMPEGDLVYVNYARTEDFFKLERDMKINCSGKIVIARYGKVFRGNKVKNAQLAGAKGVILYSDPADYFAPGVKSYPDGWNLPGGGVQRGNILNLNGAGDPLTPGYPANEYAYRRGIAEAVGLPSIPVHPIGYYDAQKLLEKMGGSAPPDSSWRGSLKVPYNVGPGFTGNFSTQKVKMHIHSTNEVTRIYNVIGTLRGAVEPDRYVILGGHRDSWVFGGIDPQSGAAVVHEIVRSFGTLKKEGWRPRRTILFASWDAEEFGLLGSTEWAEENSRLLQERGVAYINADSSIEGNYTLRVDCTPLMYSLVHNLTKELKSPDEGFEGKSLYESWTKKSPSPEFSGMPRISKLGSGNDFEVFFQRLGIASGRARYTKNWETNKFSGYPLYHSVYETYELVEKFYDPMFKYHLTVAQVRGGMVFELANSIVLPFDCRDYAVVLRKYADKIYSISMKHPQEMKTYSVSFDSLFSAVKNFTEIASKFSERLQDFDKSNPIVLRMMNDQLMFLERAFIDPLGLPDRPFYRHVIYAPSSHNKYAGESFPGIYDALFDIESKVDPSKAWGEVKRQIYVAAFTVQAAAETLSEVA

binding result	Binder
no binding (tested: 10 uM)	KQSYNAIT [PS68]
no binding (tested: 10 uM)	KQSYNFAT [PS69]
